B1: V015 (antibody, V domains shown)
VH: EVQLVESGGGLVQPGGSLRLSCAASGFTFNSYWMSWVRQAPGKGLEWVANIKQDGSEKYYVDSVKGRFTISRDNAKNSLYLQMNSLRAEDTAVYYCARLPTYYSGFDYWGQGTLVTVSS
VL: NFMLTQPHSVSESPGKTVTISCTGSSGSIASNYVQWYQQRPGSAPTTVIYEDNQRPSGVPDRFSGSIDSSSNSASLTISGLKTEDEADYYCQSYDSTNRGVVFGGGTKLTVL
notes: IgG; donor BRA13; source: recombinant monoclonal IgG, produced and purified as previously described
B2: V028 (antibody, V domains shown)
VH: QVQLVESGGGVVQPGRSLRLSCAASGFTFSSYGMHWVRQAPGKGLEWVAVVSFDGSDKYYADSVKGRFTISRDNSKNTLYLQMNSLRAEDTALYYCAKGGYSYAYPRYYFDYWGQGTLVTVSS
VL: DIQMTQSPSSLSASVGDRVTITCQASQDISNYLNWYQQKPGKAPKLLIYDASNLETGVPSRFSGSGSGTDFTFTISSLQPEDIATYYCQQHDNLPITFGQGTRLEIK
notes: IgG; donor BRA14; source: recombinant monoclonal IgG, produced and purified as previously described
B3: V010 (antibody, V domains shown)
VH: QVQLQESGPGLVKPSETLSLTCTVSGGSISSYYWSWIRQPPGKGLEWIGYIYYNGSTNYNPSLKSRVTISLDTSKNQFSLKLSSVTAADTAVYYCASDYYDSSGYYYGFDYWGQGTLVTVSS
VL: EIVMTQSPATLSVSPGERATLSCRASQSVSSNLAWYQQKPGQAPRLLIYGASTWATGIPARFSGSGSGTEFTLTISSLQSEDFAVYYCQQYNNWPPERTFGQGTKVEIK
notes: as for B1
B4: V025 (antibody, V domains shown)
VH: QVQLVQSGAEVKKPGASVKVSCKASGYTFTSYGISWVRQAPGQGLEWMGWISVYNGKTNYAQKLQGRVTMTTDTSTSTAYMELRSLISDDTAVYYCARADRYNWDYGSSWGQGTLVTVSS
VL: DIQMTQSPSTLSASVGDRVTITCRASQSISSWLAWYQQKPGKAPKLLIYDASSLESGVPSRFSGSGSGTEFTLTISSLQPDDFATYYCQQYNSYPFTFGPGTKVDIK
notes: as for B1
B5: V019 (antibody, V domains shown)
VH: QVQLVQSGAEVKKPGSSVKVSCKASGGTFSTYTFSWVRQAPGQGLEWMGRIIPILGIANYAQKFQGRITITADKSTSTAYMELSSLRSEDTAVYYCAWGSYSYGYFVDIWGQGTMVTVSS
VL: DIVMTQTLLSLSVTPGQPASISCKSSQSLLHSDGKTYLYWYLQKPGQSPQLLIYEVSSRFSGVPDRFSGSGSGTDFTLKISRVEAEDVGVYYCMQGIQFHWTFGQGTKLEIK
notes: as for B1
B6: V011 (antibody, V domains shown)
VH: QVQLVQSGAEVKKPGASVKVSCKASGYIFTSYDINWVRQATGQGLEWMGWMNPNSGNTGYAQKFQGRVTMTRNTSISTAYMELSSLRSEDTAVYYCARASSSLTYYFDYWGQGTLVTVSS
VL: SYELTQPPSVSVAPGKTARITCGENNIGSKSVHWYQQKPGQAPVLVVYDDSDRPSGIPERFSGSNSGNTATLTISRVEAGDEADYYCQVWDSSSDPVVFGGGTKLTVL
notes: as for B1
B7: V002 (antibody, V domains shown)
VH: EVQLVESGGGLVQPGRSLRLSCAASGFTFDEYAMHWVRQAPGKGLEWVSGSSWNSGTIGYADSVKGRFTISRDNAKNSLYLQMNSLRAEDTALYYCAKSQGDYGGNSGAGYFQHWGQGTLVTVSS
VL: SYELTQPPSVSVAPGKTARITCGGNNIGSKSVHWYQQKPGQAPMLVVYDDSDRPSGIPERFSGSNSGNTATLTISRVEAGDEADYYCQVWDSSSEVYVFGTGTKVTVL
notes: as for B1
B8: V017 (antibody, V domains shown)
VH: EVQLVESGGGLVQPGGSLRLSCVASGFTFSTYSMNWVRQAPGKGLEWVSYISSSSSTIYYADSVKGRFTISRDNAKSSLYLQMNSLRAEDTAVYYCASGLCGGDCPLTCWGQGTLVTVSS
VL: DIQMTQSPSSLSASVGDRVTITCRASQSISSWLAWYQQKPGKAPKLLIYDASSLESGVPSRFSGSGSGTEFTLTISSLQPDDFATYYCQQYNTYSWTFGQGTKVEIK
notes: as for B1
B9: V013 (antibody, V domains shown)
VH: QVQLVESGGGVVQPGRSLRLSCAGSGFIFSSFAMHWVRQAPGKGLEWVAVVSYDGDNKYYADSVKGRFTISRDNSKNTLYLQMDSLRPEDTAVYFCGRDEAALWIQRWYREIDFWGQGTLVTVSS
VL: QSVLTQPPSVSGTPGQRVTISCSGSSSNTGRNPVTWYQQFPGSAPKLLISRNNQRPSGVPDRFSGSKSGTSASLAISGLQSEDEADYYCAAWDDNLNGQVFGGGTKVTVL
notes: as for B1
B10: V055 (antibody, V domains shown)
VH: QVQLVQSGAEVKKPGSSVKVSCKASGGTFSSYIINWVRQAPGQGLEWMGRIIPILGIANYAQKFHGRVTITADESTSTAYMELSSLRSEDTAVYYCARGGPDPSDSNYAALLYYYYMDVWGKGTTVTVSS
VL: QSVLTQPPSVSAAPGQKVTISCSGSSSNIGSYYVSWYQKLPGTAPKLLIHENNKRPSGIPDRISGSKSGTSATLGITGLQTGDEADYYCGTWDSSLSDVVFGGGTKLTVL
notes: IgG; donor BRA15; source: recombinant monoclonal IgG, produced and purified as previously described
B11: V014 (antibody, V domains shown)
VH: EVQLVESGGGLVQPGGSLRLSCAASGFTFSSYDMHWVRQATGKGLEWVSAIGTAGDTYYPGSVKGRFTISRENAKNSLYLQMNSLRAGDTAVYYCARGVITMVRGVIRDYYYYGMDVWGQGTTVTVSS
VL: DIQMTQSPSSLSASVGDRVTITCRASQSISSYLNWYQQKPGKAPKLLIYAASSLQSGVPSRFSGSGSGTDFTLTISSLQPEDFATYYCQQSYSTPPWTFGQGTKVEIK
notes: as for B1
B12: V009 (antibody, V domains shown)
VH: EVQLVQSGAEVKKPGESLKISCKGSGYRFTSYWIGWVRQMPGKGLEWMGIIYAGDSDTRYSPSFQGQVTISVDKSISTAYLQWSSLKASDTAMYYCATTMTTGYFDYWGQGTLVTVSS
VL: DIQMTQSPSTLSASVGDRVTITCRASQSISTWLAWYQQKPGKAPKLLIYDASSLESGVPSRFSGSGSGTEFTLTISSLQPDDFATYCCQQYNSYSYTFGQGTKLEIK
notes: as for B1
B13: V020 (antibody, V domains shown)
VH: QVQLVESGGGVVQPGRSLRLSCAASGFTFSSYGMHWVRQAPGKGLEWVAVISYDGSNKYYADSVKGRFTISRDNSKNTLYLQMNSLRAEDTAVYYCAKGGWFGELLRYFDYWGQGTLVTVSS
VL: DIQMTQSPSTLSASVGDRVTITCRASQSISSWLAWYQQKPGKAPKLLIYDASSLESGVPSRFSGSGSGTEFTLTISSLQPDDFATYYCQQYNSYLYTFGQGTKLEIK
notes: as for B1
B14: V026 (antibody, V domains shown)
VH: QVQLVESGGGVVQPGRSLRLSCAVSGFTFSSYGMHWVRQAPGKGLEWVAVISYEGSNKYYADSVKGRFTISRDNSKNTLYLQMNSLRAEDTAVYYCAKGGWYGSPTYYFDYWGQGTLVTVSS
VL: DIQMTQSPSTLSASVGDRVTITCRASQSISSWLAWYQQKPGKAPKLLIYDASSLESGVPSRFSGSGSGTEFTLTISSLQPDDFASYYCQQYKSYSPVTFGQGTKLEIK
notes: as for B1
B15: V062 (antibody, V domains shown)
VH: QLQLQESGPGLVKPSETLSLTCTVSSGSISSSSYYWGWIRQPPGKGLEWIGSIYYSGSTYYNPSLKSRVTISVDTSKNQFSLKLSSVTAADTAVYYCARHWRENFAHAFDIWGQGTMVTVSS
VL: QSALTQPASVSGSPGQSITISCTGTSSDVGSYDLVSWFQQHPGKAPKLMIYEVTKRPSGVSNRFSGSKSGNTASLTISGLQAEDEADYYCCSYVGSSTYWVFGGGTKLTVL
notes: as for B10
B16: V022 (antibody, V domains shown)
VH: EVQLVESGGGLVKPGGSLRLSCAASGFTFSSYSMNWVRQAPGKGLEWVSSISSTNNYIYNADSVKGRFTISRDNAKNSLYLQMNSLRAEDTAVYYCARDPAGRYSYGLYYFYYMDVWGKGTTVTVSS
VL: QSALTQPASVSGSPGQSITISCTGTSSDVGGYNYVSWYQQRPGKAPKLMIYDVSNRPSGVSDRFSGSKSGNTASLTISGLQAEDEADYYCTSYTSSSSLYVFGTGTKVTVL
notes: as for B1
B17: V064 (antibody, V domains shown)
VH: EVQLVESGGGLVQPGGSLRLSCAASGLTVSRNYMRWVRQAPGKGLEWVSLIYSGGSTFYGDSVKGRFTISRDNSKNTLYLQMNSLRAEDTAVYYCARDLVRDGMDVWGQGTTVTVSS
VL: EIVMTQSPATLSVSPGERATLSCRASQSVSSNLAWYQQKPGQAPRLLIYGASTRATGIPARFSGSGSGTEFTLTISSLQSEDFAVYYCQQYNNWTFGQGTKVEIK
notes: as for B10
B18: V063 (antibody, V domains shown)
VH: QVQLVESGGGVVQPGRSLRLSCAASGFPFSSFGMHWVRQAPGKGLEWVAVISSDGSNKYYADSVKGRFTISRDNSKNTLYLQMNSLRAEDTAVYYCAKEFTYVVVTAFWGTENFDIWGQGTMVTVSS
VL: DIQMTQSPSTLSASVGDRVTITCRASQSISSWLAWYQQKPGKAPNLLIYKASALESGVPSRFSGSGSGTEFTLTISSLQPDDFATYYCQQYNSYPITFGQGTRLEIK
notes: as for B10
B19: V016 (antibody, V domains shown)
VH: QVQLVESGGGVVQPGRSLRLSCAASGFTFSNYGMHWVRQAPGKGLEWVAVISYDGSNKYYADSVKGRFTISRDNSKNTLYLQMNSVRVEDTAVYYCAKGSFGYSYVHTYFDYWGQGTLVTVSS
VL: DIQMTQSPSTLSASVGDRVTITCRASQSISSWLAWYQQKPGKAPKLLIYDASSLESGVPSRFSGSGSGTEFILTISSLQPDDFATYYCQQYNSPMYTFGQGTKLEIK
notes: as for B1
B20: V003 (antibody, V domains shown)
VH: EVQLVQSGAEVKKPGESLKISCLGSGYSFTSYWIGWVRQMPGKGLEWMGIIFPADSDTRYSPSFQGQVIISADKSISTAYLQWSSLKASDTAMYYCARLREFGDYYYYGMDVWGQGTTVTVSS
VL: DIQLTQSPSSLSASVGDRVTITCRASQGISSYLAWYQQKPGKAPKLLIYAASTLQSGVPSRFSGSGSGTDFTLTISSLQPEDFATYYCQQLNSYPDFGQGTKLEIK
notes: as for B1
B21: V056 (antibody, V domains shown)
VH: QVQLVESGGGVVQPGRSLRLSCAASGFPFSNYGMHWVRQAPGKGLEWVAVISYDGSNKYYADSVKGRFTISRDNSKNTLYLQMNSLRAEDTALYYCAKDSRPLPAAMSTYYYYGVDVWGQGTTVTVSS
VL: not shown
notes: as for B10
B22: V060 (antibody, V domains shown)
VH: QVQLVESGGGVVQPGRSLRLSCAASGFPFSNYGMHWVRRAPGKGLEWVAVISYDGLNKYYADSVKGRFTISRDNSKNTLYLQMNRLRAEDTAVYYCAKDSRPVPGAMSTYYYYGMDVWGQGTTVTVSS
VL: not shown
notes: as for B10
B23: V057 (antibody, V domains shown)
VH: EVQLVESGGGLVQPGRSLRLSCAASGFTFGDYAMHWVRQAPGKGLEWVSGISWNSGIIGQADSVKGRFTISRDNAKNSLYLQMNSLRVEDTALYYCAKGGGESVEVPADEKLDYWGQGTLVTVSS
VL: QSVLTQPPSVSGAPGQRVTISCTGSSSNIGAGYDVHWYQQLPGTAPKLLIYGNNNRPSGVPDRFSGSKSGTSASLAITGLQAEDEADYYCQSYDSSLSGSWVFGGGTKLTVL
notes: as for B10
B24: V061 (antibody, V domains shown)
VH: QVQLVQSGAEVKKPGTSVKVSCKASGYTFKNYGISWVRQAPGQGLEWMGWISAHNGNTNYAQRVQGRVTMTTDTSTSTAYMELRSLRSEDTAVYYCGRESGVASHPGDLDYWGQGTLVTVSS
VL: SYELTQPPSVSVSPGQTARITCSGDALPRQYAYWYQQKPGQAPVLLIYKDSERPSGIPERFSGSSSGTTVTLTISGVQAEDEADYYCQSADSSVVFGGGAKLTVL
notes: as for B10

For the assay, the target named is SARS-CoV-2 Wuhan-Hu-1 RBD (SARS-CoV-2 Wuhan-Hu-1, UniProt P0DTC2). Briefly: BLI. The settings on record: both partners purified.
By Kd is commonly meant the concentration at which binding is half-saturated. Regarding B1, binding was characterised by a dissociation constant (Kd) of 15.8 nM.
As for B2, the figure is 19.8 nM.
B3: the Kd worked out at 2.08 nM.
As for B4, the figure is 1.93 nM; as for B5, 3.84 nM.
As for B6, the figure is 7.46 nM; as for B7, 1170 nM.
As for B8, the figure is 18.4 nM.
As to B9, binding was characterised by a dissociation constant (Kd) of 128 nM.
As for B10, the figure is 0.981 nM; as for B11, 15.1 nM; as for B12, 3.22 nM.
Turning to B13, the Kd was determined as 77.3 nM. Against the preceding molecule, the Kd is about 24-fold higher.
As for B14, the figure is 10.7 nM; as for B15, 2.86 nM.
B16 came in with a Kd of 13 nM.
Consider B17, for which the Kd came out at 2.76 nM.
As for B18, the figure is 4.16 nM.
As for B19, the figure is 5.84 nM.
As for B20, the Kd stood at 2980 nM.
As for B21, the figure is 14.3 nM.
As for B22, binding was characterised by a dissociation constant (Kd) of 20.6 nM.
As for B23, the figure is 16.9 nM; as for B24, 13.3 nM.

Source of the values: article PMC9270183 (The Journal of Experimental Medicine, 2022).
